How the values were obtained:
GST–MICAL1 ΔMOΔCH = target: T1, GST–MICAL1 ΔMOΔCH (human, UniProt Q8TDZ2 651-1067); assay: pull-down; in vitro: GST-tagged WDR44 or MICAL1 domains on glutathione sepharose beads with an equal amount of Thrombin-released GRAF2 SH3, 30 min 4°C, washed in bacterial lysis buffer (20 mM Hepes pH 7.4, 1 mM DTT, NaCl); Coomassie staining; conditions: both partners purified
T1 construct: aa 651–1067 of human MICAL1; source: E. coli BL21(DE3) pLysS, purified on glutathione sepharose beads; not shown: GST, N-terminal, kept
T1 sequence (looked up): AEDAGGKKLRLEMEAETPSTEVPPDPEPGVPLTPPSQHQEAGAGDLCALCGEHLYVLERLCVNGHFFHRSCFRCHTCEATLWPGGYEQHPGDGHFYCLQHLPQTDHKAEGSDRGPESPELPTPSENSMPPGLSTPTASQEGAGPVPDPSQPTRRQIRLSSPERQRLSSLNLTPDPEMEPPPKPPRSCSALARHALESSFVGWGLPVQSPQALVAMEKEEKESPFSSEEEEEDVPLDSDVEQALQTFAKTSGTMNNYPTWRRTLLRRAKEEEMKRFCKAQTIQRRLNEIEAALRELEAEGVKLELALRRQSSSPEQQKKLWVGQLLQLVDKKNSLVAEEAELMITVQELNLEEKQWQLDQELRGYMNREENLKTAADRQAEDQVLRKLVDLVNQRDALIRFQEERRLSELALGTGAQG

GST–WDR44 ΔC = target: T2, GST–WDR44 ΔC (human, UniProt Q5JSH3 1-472); assay: as above; conditions: both partners purified
T2 construct: aa 1–472 of human WDR44 (N-tag clone: forward primer begins at codon 2); source: E. coli BL21(DE3) pLysS, purified on glutathione sepharose beads; not shown: GST, N-terminal, kept
T2 sequence (looked up): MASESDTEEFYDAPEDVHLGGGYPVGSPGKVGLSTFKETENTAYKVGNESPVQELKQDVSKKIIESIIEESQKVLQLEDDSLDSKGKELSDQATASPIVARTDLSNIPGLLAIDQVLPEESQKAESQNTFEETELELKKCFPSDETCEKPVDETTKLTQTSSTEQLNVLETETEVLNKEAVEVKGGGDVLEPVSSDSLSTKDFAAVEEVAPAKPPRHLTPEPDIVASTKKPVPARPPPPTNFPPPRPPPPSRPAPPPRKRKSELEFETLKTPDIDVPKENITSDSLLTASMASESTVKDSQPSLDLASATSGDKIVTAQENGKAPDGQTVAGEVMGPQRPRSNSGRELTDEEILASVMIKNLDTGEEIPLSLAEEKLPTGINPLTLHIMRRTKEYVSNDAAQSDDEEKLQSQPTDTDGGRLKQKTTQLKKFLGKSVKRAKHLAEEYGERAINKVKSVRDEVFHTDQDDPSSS

B1: GRAF2 SH3 (released from GST by Thrombin) (domain or fragment, human, UniProt A1A4S6 718-786, looked up)
chain: ATVADKPPESIRSRKARAVYPCEAEHSSELSFEIGAIFEDVQTSREPGWLEGTLNGKRGLIPQNYVKLL
notes: SH3 domain construct, aa 718–786 of human GRAF2; same construct as m2 with GST cut off; source: E. coli BL21(DE3) pLysS; released from GST-GRAF2 SH3 beads with Thrombin; not shown: GST, N-terminal, cleaved
binding result (GST–MICAL1 ΔMOΔCH): binds
binding result (GST–WDR44 ΔC): binds

From paper PMC7199855, “GRAF2, WDR44, and MICAL1 mediate Rab8/10/11–dependent export of E-cadherin, MMP14, and CFTR ΔF508” (The Journal of Cell Biology, 2020)
